Laboratory results: PMC9849236

Assays:
[1] = biological target: hGLP1R-GFP (human) (UniProt P43220)
[2] = biological target: SNAPf-mGLP1R (mouse) (UniProt O35659)
[3] = biological target: SNAP-hGLP1R (human) (UniProt P43220)

UniProt O35659, sequence (O35659 22-463): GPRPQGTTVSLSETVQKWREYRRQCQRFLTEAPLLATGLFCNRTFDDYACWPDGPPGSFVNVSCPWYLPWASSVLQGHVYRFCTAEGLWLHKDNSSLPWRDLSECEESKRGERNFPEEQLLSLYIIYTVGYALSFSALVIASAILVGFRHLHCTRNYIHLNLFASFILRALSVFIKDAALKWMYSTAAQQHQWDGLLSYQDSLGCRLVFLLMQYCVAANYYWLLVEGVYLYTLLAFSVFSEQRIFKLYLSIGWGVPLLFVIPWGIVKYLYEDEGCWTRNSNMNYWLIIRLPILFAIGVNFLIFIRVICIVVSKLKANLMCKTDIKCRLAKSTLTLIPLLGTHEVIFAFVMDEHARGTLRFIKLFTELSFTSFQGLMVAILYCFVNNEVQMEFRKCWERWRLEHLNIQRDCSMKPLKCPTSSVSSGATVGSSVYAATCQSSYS

Work on Exendin4(1-39) (peptide) yielded an EC50 of Exendin4-induced cAMP generation (LANCE cAMP assay, transfected AD293 cells, 30 min with ligand + 100 µM IBMX) [1] of 5 pM, an EC50 of Exendin4-induced cAMP generation (LANCE cAMP assay, transfected AD293 cells, 30 min with ligand + 100 µM IBMX) [2] of 4.22 pM and an EC50 of Exendin4-induced cAMP generation (LANCE cAMP assay, transfected AD293 cells, 30 min with ligand + 100 µM IBMX) [3] of 8.02 pM.
